The values that follow come from the supplement of paper PMC7877785.

The series can be described thus: self-splicing fitness, log relative to wild type (ln ratio); higher = more splicing; Tetrahymena group I intron in knt gene, E. coli kanamycin selection, DiMSum; sequences stand for … in CUCUCU…GGAGGGAAAAGUUAUCAGGCAUGCACCUGGUAGCUAGUCUUUAAACCAAUAGAUUGCAUCGGUUUAAAAGGCAAGACCGUCAAAUUGCGGGAAAGGGGUCAACAGCCGUUCAGUACCAAGUCUCAGGGGAAACUUUGAGAUGGCCUUGCAAAGGGUAUGGUAAUAAGCUGACGGACAUGGUCCUAACCACGCAGCCAAGUCCUAAGUCAACAGAUCUUCUGUUGAUAUGGAUGCAGUUCACAGACUAAAUGUCGGUCGGGGAAGAUGUAUUCUUCUCAUAAGAUAUAGUCGGACCUCUCCUUAAUGGGAGCUAGCGGAUGAAGUGAUGCAACACUGGAGCCGCUGGGAACUAAUUUGUAUGCGAAAGUAUAUUGAUUAGUUUUGGAGUACUCGUGGUCG
Summed up:
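Pooled colonies went to amplicon sequencing on an Illumina HiSeq 2500 after six replicate transformations. The plates were LB agar with 100 μg/mL carbenicillin, 50 μM IPTG and 0.2% rhamnose, with or without 25 μg/mL kanamycin, incubated overnight at 37°C or 30°C. The E. coli BL21(DE3) library had all eight P1ex-region intron nucleotides randomised, the intron placed in the knt kanamycin-resistance gene on pET-22b(+). DiMSum fitness is the error-weighted combination of replicate fold changes, kanamycin against none, normalised to wild type.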

± gives the uncertainty stated by the source.

For GCAUAGCAAUAUUACGUUAC, the “self-splicing fitness (ln)” value (30 °C) was -2.15 ± 0.41 and the “self-splicing fitness (ln)” value (37 °C) is -1.85 ± 0.4.

Regarding GCAUAGCAAUAUUACGUUGA, the “self-splicing fitness (ln)” value (30 °C) was -2.41 ± 0.12 and the “self-splicing fitness (ln)” value (37 °C) was -1.76 ± 0.1.

Consider GCAUAGCAAUAUUACGUUGU, for which the “self-splicing fitness (ln)” value was -3.21 ± 0.17 (30 °C) and -2.74 ± 0.19 (37 °C). For GCCAAGCAAUAUUACGAAGA, in that order: -2.96 ± 0.21 and -1.39 ± 0.17.

With GCCAAGCAAUAUUACGAAUG, the “self-splicing fitness (ln)” value runs as follows: (30 °C) -3.56 ± 0.2; (37 °C) -1.84 ± 0.16. For GCCAAGCAAUAUUACGAUUG, in that order: -4.04 ± 0.4 and -2.12 ± 0.34. For GCCAAGCAAUAUUACGCCCA, the “self-splicing fitness (ln)” value is -1.18 ± 0.1 (30 °C) and -0.6 ± 0.12 (37 °C). Regarding GCCAAGCAAUAUUACGCGUA, the “self-splicing fitness (ln)” value reads like this: (30 °C) -0.871 ± 0.089; (37 °C) -0.13 ± 0.089. The like results for GCCAAGCAAUAUUACGCUAC were, in that order, -4.34 ± 0.42 and -2.22 ± 0.16.

In the case of GCCAAGCAAUAUUACGCUAU, the “self-splicing fitness (ln)” value is -1.23 ± 0.064 (30 °C) and -0.923 ± 0.078 (37 °C). For GCCAAGCAAUAUUACGCUGA, in that order: -1.4 ± 0.1 and -0.943 ± 0.15.

As for GCCAAGCAAUAUUACGGAUA, the “self-splicing fitness (ln)” value is -0.904 ± 0.069 (30 °C) and -0.65 ± 0.073 (37 °C). For GCCAAGCAAUAUUACGGCAG, in that order: -3.71 ± 0.19 and -2.54 ± 0.23. The like results for GCCAAGCAAUAUUACGGUCC were, in that order, -2.49 ± 0.11 and -0.771 ± 0.11.

On to GCCAAGCAAUAUUACGUCAC, for which the “self-splicing fitness (ln)” value (30 °C) is -3.8 ± 0.19 and the “self-splicing fitness (ln)” value (37 °C) is -1.8 ± 0.16. The like results for GCCAAGCAAUAUUACGUCGC were, in that order, -2.63 ± 0.14 and -1.23 ± 0.1.

As to GCCAAGCAAUAUUACGUCUA, the “self-splicing fitness (ln)” value runs as follows: (30 °C) -1.15 ± 0.11; (37 °C) -1.08 ± 0.1. Consider GCCAAGCAAUAUUACGUCUC, for which the “self-splicing fitness (ln)” value runs as follows: (30 °C) -0.775 ± 0.067; (37 °C) -0.174 ± 0.087. As to GCCAAGCAAUAUUACGUUGU, the “self-splicing fitness (ln)” value is, setting by setting: (30 °C) -1.79 ± 0.064; (37 °C) -0.73 ± 0.072.

On to GCCCAGCAAUAUUACGAAAG, for which the “self-splicing fitness (ln)” value runs as follows: (30 °C) -2.48 ± 0.12; (37 °C) -2.07 ± 0.19. For GCCCAGCAAUAUUACGAAUU, in that order: -2.18 ± 0.077 and -0.934 ± 0.094. Take GCCCAGCAAUAUUACGAGCA: the “self-splicing fitness (ln)” value is -1.49 ± 0.11 (30 °C) and -0.143 ± 0.091 (37 °C).

For the sequence GCCCAGCAAUAUUACGAGCG, the “self-splicing fitness (ln)” value reads like this: (30 °C) -0.449 ± 0.067; (37 °C) -1.17 ± 0.1. The like results for GCCCAGCAAUAUUACGAGGC were, in that order, -3.64 ± 0.2 and -2.5 ± 0.22. For GCCCAGCAAUAUUACGAUGC, in that order: -0.328 ± 0.055 and 0.257 ± 0.076. GCCCAGCAAUAUUACGAUGG: the “self-splicing fitness (ln)” value by setting is: (30 °C) -3.53 ± 0.14; (37 °C) -2.98 ± 0.18. For GCCCAGCAAUAUUACGCAGA, the “self-splicing fitness (ln)” value was -3.37 ± 0.28 (30 °C) and -3.47 ± 0.42 (37 °C).

For the sequence GCCCAGCAAUAUUACGCCAC, the “self-splicing fitness (ln)” value by setting is: (30 °C) -4.89 ± 0.38; (37 °C) -2.44 ± 0.18. For GCCCAGCAAUAUUACGCGUG, the “self-splicing fitness (ln)” value is -3.68 ± 0.13 (30 °C) and -2.41 ± 0.12 (37 °C). For GCCCAGCAAUAUUACGCUAU, in that order: -0.826 ± 0.082 and -0.309 ± 0.086. The like results for GCCCAGCAAUAUUACGCUCA were, in that order, -0.789 ± 0.08 and -0.055 ± 0.1. As to GCCCAGCAAUAUUACGCUGA, the “self-splicing fitness (ln)” value runs as follows: (30 °C) -1.08 ± 0.13; (37 °C) -0.784 ± 0.18. Regarding GCCCAGCAAUAUUACGGAUU, the “self-splicing fitness (ln)” value was 0.0408 ± 0.057 (30 °C) and -0.0391 ± 0.08 (37 °C).

For GCCCAGCAAUAUUACGUAAU, the “self-splicing fitness (ln)” value is, setting by setting: (30 °C) -0.747 ± 0.06; (37 °C) -0.32 ± 0.067. Consider GCCCAGCAAUAUUACGUCAC, for which the “self-splicing fitness (ln)” value was -2.87 ± 0.13 (30 °C) and -2.64 ± 0.22 (37 °C). For GCCCAGCAAUAUUACGUGCC, in that order: -3.75 ± 0.32 and -3.18 ± 0.2. The like results for GCCCAGCAAUAUUACGUGGG were, in that order, -3.2 ± 0.12 and -3.07 ± 0.2. For GCCCAGCAAUAUUACGUUAU, in that order: -1.17 ± 0.079 and -1.29 ± 0.1. On to GCCCAGCAAUAUUACGUUCA, for which the “self-splicing fitness (ln)” value runs as follows: (30 °C) -2.45 ± 0.16; (37 °C) -0.504 ± 0.11.

Take GCCCAGCAAUAUUACGUUUC: the “self-splicing fitness (ln)” value runs as follows: (30 °C) -1.36 ± 0.078; (37 °C) -1.37 ± 0.1. For GCCGAGCAAUAUUACGAAGC, in that order: -2.8 ± 0.33 and -1.8 ± 0.46. Turning to GCCGAGCAAUAUUACGAUAC, the “self-splicing fitness (ln)” value (37 °C) is -1.59 ± 0.35. As for GCCGAGCAAUAUUACGAUCG, the “self-splicing fitness (ln)” value (30 °C) is -2.36 ± 0.26.

With GCCGAGCAAUAUUACGCAAU, the “self-splicing fitness (ln)” value (30 °C) was -2.79 ± 0.2 and the “self-splicing fitness (ln)” value (37 °C) was -1.35 ± 0.15. The like results for GCCGAGCAAUAUUACGCACU were, in that order, -1.64 ± 0.11 and -0.365 ± 0.13. Turning to GCCGAGCAAUAUUACGCAUC, the “self-splicing fitness (ln)” value is, setting by setting: (30 °C) -2.54 ± 0.24; (37 °C) -1.48 ± 0.28.

Turning to GCCGAGCAAUAUUACGCCGU, the “self-splicing fitness (ln)” value (30 °C) was -3.28 ± 0.29 and the “self-splicing fitness (ln)” value (37 °C) is -1.75 ± 0.19. As for GCCGAGCAAUAUUACGCUAA, the “self-splicing fitness (ln)” value by setting is: (30 °C) -1.86 ± 0.2; (37 °C) -2.62 ± 0.23. The like results for GCCGAGCAAUAUUACGCUCU were, in that order, -0.992 ± 0.2 and -0.494 ± 0.21. Consider GCCGAGCAAUAUUACGCUUU, for which the “self-splicing fitness (ln)” value reads like this: (30 °C) -1.61 ± 0.082; (37 °C) -0.235 ± 0.093. With GCCGAGCAAUAUUACGUACC, the “self-splicing fitness (ln)” value was -2.15 ± 0.13 (30 °C) and -0.678 ± 0.16 (37 °C). Regarding GCCGAGCAAUAUUACGUAGA, the “self-splicing fitness (ln)” value was -2.74 ± 0.13 (30 °C) and -2.07 ± 0.14 (37 °C).

Turning to GCCGAGCAAUAUUACGUAGG, the “self-splicing fitness (ln)” value (30 °C) is -3.39 ± 0.21 and the “self-splicing fitness (ln)” value (37 °C) is -0.729 ± 0.25. The like results for GCCGAGCAAUAUUACGUGCG were, in that order, -2.17 ± 0.11 and -1.28 ± 0.098. For GCCGAGCAAUAUUACGUUAU, in that order: -2.06 ± 0.098 and -2.43 ± 0.18. For GCCGAGCAAUAUUACGUUGU, in that order: -2.48 ± 0.12 and -1.54 ± 0.12. With GCCUAGCAAUAUUACGAAAU, the “self-splicing fitness (ln)” value runs as follows: (30 °C) -2.34 ± 0.12; (37 °C) -0.297 ± 0.13. For GCCUAGCAAUAUUACGACCU, in that order: -1.35 ± 0.23 and -1.02 ± 0.27.

On to GCCUAGCAAUAUUACGACGA, for which the “self-splicing fitness (ln)” value by setting is: (30 °C) -1.46 ± 0.14; (37 °C) -0.629 ± 0.13.

Take GCCUAGCAAUAUUACGAUAU: the “self-splicing fitness (ln)” value is -2.23 ± 0.11 (30 °C) and -0.907 ± 0.097 (37 °C). For GCCUAGCAAUAUUACGAUCU, in that order: -2.18 ± 0.079 and -0.334 ± 0.071. The like results for GCCUAGCAAUAUUACGCAAC were, in that order, -1.78 ± 0.14 and -1.21 ± 0.13.

Regarding GCCUAGCAAUAUUACGCCAA, the “self-splicing fitness (ln)” value by setting is: (30 °C) -2.38 ± 0.32; (37 °C) -3.18 ± 0.29. The like results for GCCUAGCAAUAUUACGCGAU were, in that order, -3.87 ± 0.24 and -1.68 ± 0.16.

In the case of GCCUAGCAAUAUUACGCGCA, the “self-splicing fitness (ln)” value reads like this: (30 °C) -1.21 ± 0.12; (37 °C) -0.303 ± 0.11. For GCCUAGCAAUAUUACGCGCU, in that order: -2.19 ± 0.13 and -0.269 ± 0.11. For GCCUAGCAAUAUUACGCGGC, in that order: -3.58 ± 0.35 and -2 ± 0.28. For GCCUAGCAAUAUUACGCGGG, in that order: -1.74 ± 0.17 and -3.1 ± 0.43. GCCUAGCAAUAUUACGGAAA: the “self-splicing fitness (ln)” value by setting is: (30 °C) -0.507 ± 0.27; (37 °C) -0.985 ± 0.26.

For the sequence GCCUAGCAAUAUUACGGAGA, the “self-splicing fitness (ln)” value runs as follows: (30 °C) -1.16 ± 0.11; (37 °C) -1.06 ± 0.11. The like results for GCCUAGCAAUAUUACGGCCC were, in that order, -3.4 ± 0.48 and -0.535 ± 0.27. For GCCUAGCAAUAUUACGGGCG, in that order: -2.03 ± 0.1 and -1.02 ± 0.097. For GCCUAGCAAUAUUACGGGCU, in that order: -3.65 ± 0.23 and -2.07 ± 0.24. On to GCCUAGCAAUAUUACGGGGC, for which the “self-splicing fitness (ln)” value (37 °C) was -2.81 ± 0.47. Regarding GCCUAGCAAUAUUACGGUCA, the “self-splicing fitness (ln)” value by setting is: (30 °C) -0.989 ± 0.13; (37 °C) -0.494 ± 0.12.
